From the Immune Epitope Database (IEDB)

How the values were obtained:
[1] = target: HLA-B*51:01; experiment: IEDB peptide-MHC binding, purified MHC/direct/fluorescence; filed as Kd, often an IC50 or EC50 that approximates it; ≥ and ≤ were set here for values at or beyond the usual limits of such assays; conditions: source organism: Vibrio vulnificus CMCP6
[2] = target: HLA-A*03:01; experiment: as above
[3] = target: HLA-B*57:01; experiment: as above; conditions: source organism: Vibrio vulnificus CMCP6
[4] = target: HLA-A*02:12; experiment: as above; conditions: source organism: Vibrio vulnificus CMCP6
[5] = target: HLA-A*26:01; experiment: as above
[6] = target: HLA-B*15:17; experiment: as above; conditions: source organism: Vibrio vulnificus CMCP6
[7] = target: HLA-B*40:01; experiment: as above
[8] = target: HLA-A*24:03; experiment: as above; conditions: source organism: Vibrio vulnificus CMCP6
[9] = target: HLA-A*02:06; experiment: as above; conditions: source organism: Vibrio vulnificus CMCP6
[10] = target: HLA-B*07:02; experiment: IEDB peptide-MHC binding, purified MHC/competitive/fluorescence; filed as Kd, often an IC50 or EC50 that approximates it; ≥ and ≤ were set here for values at or beyond the usual limits of such assays; conditions: source organism: Vibrio vulnificus CMCP6
[11] = target: HLA-A*30:01; experiment: as above
[12] = target: HLA-B*58:01; experiment: as above; conditions: source organism: Vibrio vulnificus CMCP6
[13] = target: HLA-A*66:01; experiment: as above; conditions: source organism: Vibrio vulnificus CMCP6
[14] = target: HLA-A*23:01; experiment: as above; conditions: source organism: Vibrio vulnificus CMCP6
[15] = target: HLA-A*01:01; experiment: as above
[16] = target: HLA-B*39:01; experiment: as above; conditions: source organism: Vibrio vulnificus CMCP6
[17] = target: HLA-B*27:05; experiment: as above; conditions: source organism: Vibrio vulnificus CMCP6
[18] = target: HLA-B*44:02; experiment: as above; conditions: source organism: Vibrio vulnificus CMCP6
[19] = target: HLA-B*14:02; experiment: as above; conditions: source organism: Vibrio vulnificus CMCP6
[20] = target: HLA-B*18:01; experiment: as above; conditions: source organism: Vibrio vulnificus CMCP6
[21] = target: HLA-B*08:01; experiment: as above
[22] = target: HLA-B*53:01; experiment: as above; conditions: source organism: Vibrio vulnificus CMCP6
[23] = target: HLA-A*02:01; experiment: as above; conditions: source organism: Vibrio vulnificus CMCP6
[24] = target: HLA-A*29:02; experiment: as above; conditions: source organism: Vibrio vulnificus CMCP6
[25] = target: HLA-A*11:01; experiment: as above; conditions: source organism: Vibrio vulnificus CMCP6
[26] = target: HLA-B*07:02; experiment: IEDB peptide-MHC binding, purified MHC/direct/fluorescence; filed as Kd, often an IC50 or EC50 that approximates it; ≥ and ≤ were set here for values at or beyond the usual limits of such assays; conditions: source organism: Escherichia coli
[27] = target: HLA-A*31:01; experiment: as above; conditions: source organism: Escherichia coli
[28] = target: HLA-B*35:01; experiment: as above; conditions: source organism: Escherichia coli
[29] = target: HLA-A*69:01; experiment: as above; conditions: source organism: Escherichia coli
[30] = target: HLA-B*15:01; experiment: as above; conditions: source organism: Escherichia coli
[31] = target: HLA-A*01:01; experiment: as above; conditions: source organism: Escherichia coli
[32] = target: HLA-B*27:05; experiment: as above; conditions: source organism: Escherichia coli
[33] = target: HLA-B*08:01; experiment: as above; conditions: source organism: Escherichia coli
[34] = target: HLA-B*15:02; experiment: as above; conditions: source organism: Salmonella enterica subsp. enterica serovar Dublin
[35] = target: HLA-A*02:01; experiment: as above; conditions: source organism: Escherichia coli
[36] = target: HLA-A*11:01; experiment: as above; conditions: source organism: Escherichia coli
[37] = target: HLA-B*57:01; experiment: IEDB peptide-MHC binding, purified MHC/competitive/radioactivity; filed as Kd, often an IC50 or EC50 that approximates it; ≥ and ≤ were set here for values at or beyond the usual limits of such assays; conditions: source organism: Homo sapiens
[38] = target: HLA-B*58:01; experiment: as above; conditions: source organism: Homo sapiens
[39] = target: HLA-A*02:07; experiment: as above; conditions: source organism: Homo sapiens
[40] = target: HLA-A*02:01; experiment: as above; conditions: source organism: Homo sapiens
[41] = target: HLA-A*29:02; experiment: as above; conditions: source organism: Homo sapiens
[42] = target: HLA-B*15:17; experiment: IEDB peptide-MHC binding, purified MHC/competitive/fluorescence; filed as Kd, often an IC50 or EC50 that approximates it; ≥ and ≤ were set here for values at or beyond the usual limits of such assays; conditions: source organism: Human immunodeficiency virus type 1 (MAL ISOLATE)
[43] = target: HLA-B*15:01; experiment: as above; conditions: source organism: Human immunodeficiency virus type 1 (MAL ISOLATE)
[44] = target: HLA-B*38:01; experiment: as above; conditions: source organism: Human immunodeficiency virus type 1 (MAL ISOLATE)
[45] = target: HLA-B*15:09; experiment: as above; conditions: source organism: Human immunodeficiency virus type 1 (MAL ISOLATE)
[46] = source organism: Vibrio vulnificus CMCP6
[47] = source organism: Escherichia coli
[48] = source organism: Human immunodeficiency virus type 1 (MAL ISOLATE)

KQIVIINPM was tested, and the Kd [1] was ≥ 20 µM, the Kd [2, 46] was ≥ 20 µM and the Kd [3] was ≥ 20 µM. The Kd [4] was 0.064 µM, the Kd [5, 46] was ≥ 20 µM and the Kd [6] was ≥ 20 µM. The Kd [7, 46] was 0.238 µM, the Kd [8] was 0.135 µM and the Kd [9] was 0.002 µM. The Kd [10] was ≥ 5 µM, the Kd [11, 46] was ≥ 5 µM and the Kd [12] was ≥ 5 µM. For the same sequence, the Kd [13] was ≥ 5 µM, the Kd [14] was ≥ 5 µM and the Kd [15, 46] was ≥ 5 µM. For the same sequence, the Kd [16] was ≥ 5 µM, the Kd [17] was 0.0389 µM and the Kd [18] was ≥ 5 µM. For the same sequence, the Kd [19] was ≥ 5 µM, the Kd [20] was ≥ 5 µM and the Kd [21, 46] was ≥ 5 µM. For the same sequence, the Kd [22] was ≥ 5 µM, the Kd [23] was ≥ 5 µM and the Kd [24] was ≥ 5 µM. The Kd [25] was ≥ 5 µM.

In the case of SSMNSDAAY, the Kd [26] is reported as ≥ 20 µM, the Kd [27] is reported as ≥ 20 µM and the Kd [28] is reported as 0.0115 µM. The Kd [2, 47] was ≥ 20 µM, the Kd [29] was ≥ 20 µM and the Kd [5, 47] was 0.0276 µM. The Kd [7, 47] was ≥ 20 µM, the Kd [30] was 0.15 µM and the Kd [31] was 0.171 µM. The Kd [32] was ≥ 20 µM, the Kd [33] was ≥ 20 µM and the Kd [34] was 0.026 µM. The Kd [35] was ≥ 20 µM and the Kd [36] was 0.144 µM.

YMIDPSGVSY was tested, and the Kd [37] was ≥ 31.6 µM, the Kd [38] was 0.589 µM and the Kd [39] was 12.7 µM. It also gave a Kd [40] of 0.651 µM and a Kd [41] of 0.0193 µM.

In the case of GSEEIKSLY, the Kd [11, 48] is reported as ≥ 20 µM, the Kd [42] is reported as 0.0989 µM and the Kd [43] is reported as 1.07 µM. For the same sequence, the Kd [15, 48] was 0.0503 µM, the Kd [44] was ≥ 20 µM and the Kd [21, 48] was ≥ 20 µM. The Kd [45] was ≥ 20 µM.
